Test results: the DeepSol protein solubility set

experiment: soluble on expression in E. coli; label from the status in PepcDB or PDB records

Sequence | soluble on expression in E. coli
MAYIQLEPLNEGFLSRISGLLLCRWTCRHCCQKCYESSCCQSSEDEVEILGPFPAQTPPWLMASRSSDKDGDSVHTASEVPLTPRTNSPDGRRSSSDTSKSTYSLTRRISSLESRRPSSPLIDIKPIEFGVLSAKKEPIQPSVLRRTYNPDDYFRKFEPHLYSLDSNSDDVDSLTDEEILSKYQLGMLHFSTQYDLLHNHLTVRVIEARDLPPPISHDGSRQDMAHSNPYVKICLLPDQKNSKQTGVKRKTQKPVFEERYTFEIPFLEAQRRTLLLTVVDFDKFSRHCVIGKVSVPLCEVDLVKGGHWWKALIPSSQNEVELGELLLSLNYLPSAGRLNVDVIRAKQLLQTDVSQGSDPFVKIQLVHGLKLVKTKKTSFLRGTIDPFYNESFSFKVPQEELENASLVFTVFGHNMKSSNDFIGRIVIGQYSSGPSETNHWRRMLNTHRTAVEQWHSLRSRAECDRVSPASLEVT | soluble
MAYTIGVDFGTLSGRAVLVHVQTGEELAAAVKEYRHAVIDTVLPKTGQKLPRDWALQHPADYLEVLETTIPSLLEQTGVDPKDIIGIGIDFTACTILPIDSSGQPLCMLPEYEEEPHSYVKLWKHHAAQKHADRLNQIAEEEGEAFLQRYGGKISSEWMIPKVMQIAEEAPHIYEAADRIIEAADWIVYQLCGSLKRSNCTAGYKAMWSEKAGYPSDDFFEKLNPSMKTITKDKLSGSIHSVGEKAGSLTEKMAKLTGLLPGTAVAVANVDAHVSVPAVGITEPGKMLMIMGTSTCHVLLGEEVHIVPGMCGVVDNGILPGYAGYEAGQSCVGDHFDWFVKTCVPPAYQEEAKEKNIGVHELLSEKANHQAPGESGLLALDWWNGNRSTLVDADLTGMLLGMTLLTKPEEIYRALVEATAYGTRMIIETFKESGVPIEELFAAGGIAEKNPFVMQIYADVTNMDIKISGSPQAPALGSAIFGALAAGKEKGGYDDIKKAAANMGKLKDITYTPNAENAAVYEKLYAEYKELVHYFGKENHVMKRLKTIKNLQFSSAAKK | soluble
MAYVTWLLAILHVHKDSFEIAAPSDSYLSAEPGQDVTLTCQLPRTWPVQQVIWEKVQPHQVDILASCNLSQETRYTSKYLRQTRSNCSQGSMKSILIIPNAMAADSGLYRCRSEAITGKNKSFVIRLIITDGE | not soluble
MCGRFAQAQTREEYLAYLADEADRNIAYDPQPIGRYNVAPGTKVLLLSERDEQLHLDPVIWGYAPGWWDKAPLINARVATAASSRMFKPLWQHGRAICFADRWFEWKKEGDKKQPYFIHRKDGKPIFMAAIGSTPFERGDEAEGFLIVTSAADKGLVDIHDRRPLALTPETARVWMRQFLEPHSKSITYRVIPALTRPMMRKDTNPCQLEHHHHHH | not soluble
MCHSGTFHLTAGESVEWVLTWAPSFEPHPPMPDYTRSLESTLSFWASWVEELPHQRLYDAEVRRSMLVLRALTDLQTGGIVAAPTTSLPEDFGGIRNWDYRYVWLRDSALTIEALVEYGFSQAALQWRTWLLRAIAGDPENLRIMYGLGGERHLPERELQHLRGYENSVPVRVGNGAAEQYQADVVGEVMVALETIRRAGCLEDEFSWGMQKAILDFQEANFDRKDQGIWEMRSEPQYFTHGRAMMWAGFDRGIKAIEEFNLDGPIERWRELRAKLREEIMTNGFNEEIQSFTQCYDNTQVDASLLQLAQIGFIGFDDPKMLSTVARIEQELLDAHGFLHRYHTDGSDGLAGDEYPFLICSFWLVEQYASSNRLDEAKEKMNRILAVQSPLGLLAEEYSTHHGRLAGNYPQAFSHIGLISAARAINFEEARNRLEHHHHHH | soluble
MCLAIPSVVIDIFEEDGEKYALAEYKGVKQKAKLALIEGVEIGDYVLIHTGYALEKMSEDEAKLSLDAWEELFDVLDEMDGVKKENSE | not soluble
MCLIAFDWQPDAAAGPVFTLIANRDEFFRRTSAPLSWWEDVPGVLAGRDLEAGGTWLGVSRDGRFAALTNYRAPFDIRAGAPTRGKLVSDFLGGPPVAPLDYLGALAEHSAVYNGFNLLVGDWKRRELAWFCNRAAEGETAVAPPVAVSAGVHALSNARLDTPWPKIVRKRAELGTLLTDNPTPSLDELIELMRDPRVADDDALPHTGIPIERERALSAAFIETPEYGTRGTTALRVTMKEGVRLTVDIKERCDDDGSHRTVRPGTFERAFTFDIDATQPRLEHHHHHH | soluble
MCSAGGIRRPIQIEEFKTAISGMSDMELAQIKTEIENSINHLQRSNARLGKYIAKLEGADDRLEADDSDDLENIDSGDLALYKDSVRENEIVLNNYNERVDALEQETVYRKTGHGKSKHEVEAKDNTNKGPDVDMDNSNVDVVTPNSIFI | soluble
MCTALSPKVRSGPGLSDMHQYSQWLASRHEANLLPMKEDLALWLTNLLGKEITAETFMEKLDNGALLCQLAETMQEKFKESMDANKPTKNLPLKKIPCKTSAPSGSFFARDNTANFLSWCRDLGVDETCLFESEGLVLHKQPREVCLCLLELGRIAARYGVEPPGLIKLEKEIEQEETLSAPSPSPSPSSKSSGKKSTGNLLDDAVKRISEDPPCKCPNKFCVERLSQGRYRVGEKILFIRMLHNKHVMVRVGGGWETFAGYLLKHDPCRMLQISRVDGKTSPIQSKSPTLKDMNPDNYLVVSASYKAKKEIKLEHHHHHH | not soluble
MCTARTAEEIFVETIAVKTRILNDRVLLEAARAIGDRLIAGYRAGARVFMCGNGGSAADAQHFAAELTGHLIFDRPPLGAEALHANSSHLTAVANDYDYDTVFARALEGSARPGDTLFAISTSGNSMSVLRAAKTARELGVTVVAMTGESGGQLAEFADFLINVPSRDTGRIQESHIVFIHAISEHVEHALFAPRQ | soluble
MDAFSGIAGPLGRASELHRYEGNQTVVFCAGGVGLPPVYPIMREHLRLGNHVTLISGFRAKEFLFWTGDDERVGKLKKEFGDQLSLIYTTNDGSYGVKGFVTGPLEEMMKANQEGKGRSIAEVIAIGPPLMMRAVSDLTKPYGVKTVASLNSLEHHHHHH | soluble
MDALVEDDICILNHEKAHKRDTVTPVSIYSGDESVASHFALVTAYEDIKKRLKDSEKENSLLKKRIRFLEEKLIARFEEETSSVGREQVNKAYHAYREVCIDRDNLKSKLDKMNKDNSESLKVLNEQLQSKEVELLQLRTEVETQQVMRNLNPPSSNWEVEKLSCDLKIHGLEQELELMRKECSDLKIELQKAKQTDPYQEDNLKSRDLQKLSISSDNMQHAYWELKREMSNLHLVTQVQAELLRKLKTSTAIKKGKSLFTGNH | soluble
MDAPKAGYAFEYLIETLNDSSHKKFFDVSKLGTKYDVLPYSIRVLLEAAVRNCDGFLMKKEDVMNILDWKTKQSNVEVPFFPARVLLQDFTGIPAMVDFAAMREAVKTLGGDPEKVHPACPTDLTVDHSLQIDFSKCAIQNAPNPGGGDLQKAGKLSPLKVQPKKLPCRGQTTCRGSCDSGELGRNSGTFSSQIENTPILCPFHLQPVPEPETVLKNQEVEFGRNRERLQFFKWSSRVFKNVAVIPPGTGMAHQINLEYLSRVVFEEKDLLFPDSVVGTDSHITMVNGLGILGWGVGGIETEAVMLGLPVSLTLPEVVGCELTGSSNPFVTSIDVVLGITKHLRQVGVAGKFVEFFGSGVSQLSIVDRTTIANMCPEYGAILSFFPVDNVTLKHLEHTGFSKAKLESMETYLKAVKLFRNDQNSSGEPEYSQVIQINLNSIVPSVSGPKRPQDRVAVTDMKSDFQACLNEKVGFKGFQIAAEKQKDIVSIHYEGSEYKLSHGSVVIAAVISCTNNCNPSVMLAAGLLAKKAVEAGLRVKPYIRTSLSPGSGMVTHYLSSSGVLPYLSKLGFEIVGYGCSTCVGNTAPLSDAVLNAVKQGDLVTCGILSGNKNFEGRLCDCVRANYLASPPLVVAYAIAGTVNIDFQTEPLGTDPTGKNIYLHDIWPSREEVHRVEEEHVILSMFKALKDKIEMGNKRWNSLEAPDSVLFPWDLKSTYIRCPSFFDKLTKEPIALQAIENAHVLLYLGDSVTTDHISPAGSIARNSAAAKYLTNRGLTPREFNSYGARRGNDAVMTRGTFANIKLFNKFIGKPAPKTIHFPSGQTLDVFEAAELYQKEGIPLIILAGKKYGSGNSRDWAAKGPYLLGVKAVLAESYEKIHKDHLIGIGIAPLQFLPGENADSLGLSGRETFSLTFPEELSPGITLNIQTSTGKVFSVIASFEDDVEITLYKHGGLLNFVARKFS | soluble
MDARPVHPAFQVFTDALRQRFGEALDAVVLYGSCLHTSDLTEGIADFYVLVSDYRLAYSGRLLAGLNAWLPPNVFYLEVPAAAGVMRAKYAVISTADFERGARQWFHPYIWARFAQPARLLYARDDQTGKRVHTAQASAVLKFISTTLPVLESGPSDLEMIWASGLMLTYAAELRAEREARARHLVRIDPEIYSRLTAAAMPALIPLLSLQADGRYHIGPITPLKRLSARIHWRLRRWQGRVLSVLRLSKATMTFRDCLDYAAWKIERHTGIKVEITPMLRRHPILWGYKVMWQLLRRGVLRLEHHHHHH | soluble
MDAVDRGVYFDEDFHVRILDVDKYNASKSLQDNTNVFINNIQNMQGLVDKYVSAIDQQVERLEAEKLKAIGLRNRVAALSEERKRKQKEQERMLAEKQEELERLQMEEQSLIKVKGEQELMIQKLSDSSSGAAYV | not soluble
MDAYPEAEAPPQSIVELVPVLIAVTDGGLRVLTVAQGMLLPNGPLSPLRNSLQAGVKLWVAKQTSQPMGYVEQLYTFVDTHRRNEHGMPVLYVSYLGLVREAADSILHPDAKWQDCYGYFPWEDLRTDGGQRDAVVGRLRIWANSADTEEVRQKRLKRIHLCWGVEPENWSEEYVLQRYEMLYESGLIAEAAEPQANFDFALTGQPMRHDHRRVLATALSRLRAKIKYRPVIFELMPPEFTLLQLQNSVEAISGRLLHKQNFRRQIQQQNLIEPSDTGVSGSKGRPAQLCRFRDDVLPDRLISDIGLPLGSR | not soluble
MDCNGSGGSSDDDKPLHHDGGVRMKFFRSVGEVFGYSPFRSLAQHARMCGRAVGLLQQQFEALRRGNYEEVEELREEIDELEHHADQIKEEIRGNVTKSLMLPVDRHDLLEFLKVQDDILNNCEHVGHMVTFRKVSAPEDVWDEFLVLLSKLMEIVNNYEEMVERIMQLVETSFSKKEVNRALEYVPIIEQLEHECDLIQIGLHTKLFNLENSNPLDIQLMVTWVVHLGYVANAAARASDRFRIMILGR | soluble
MDDIRCAIIIDPDLPPGVIANTAAVLAMSLGKRHPELVGQDLPDARGQPRQGITTVPIPVLKGGADQLRALRAAASETGLTLVELTSATRFTRSYQEYAAALAATPEEMVEYQGLALCGPGKRVRQLTGSLGLLRLEHHHHHH | not soluble
MDDLVKSSQKALENQVLRDQVSSYEREIMLQNENMEALRSFRHDMKRHFAEISVLASTGEIEQIKNYVSAMENNLVESRRLVDSGNTALDTVLNYMLQRAVDKKIQLNVKVVVPSDLKLSAYDMNIIFGNLLENAIEAQKDVKNPSIDLEINYLMDSLVVEISNRCLQKVIFKGGLPITTKQSVREHGYGLKNVKKVLDKYISTLDFECSDERFTVKILMKI | not soluble
MDDPSITPTEKCRFYLGITLRDDTKARPVPGIMQIPGGRYAVFRHTGSYSSLHKVYRSIYEEWFPKSKYHPQSTFSFEMYMNHPSTTETSELLTEIYIPVIRK | not soluble
MDDSLGVSEVVMIPFMKREVLQQICAILDTDNTWETIAPYMPGIELRDVEGCKRYSSYNQSPSELLLRIWSSKGYSTTHLYQLFAKTKLIRLMRMMRSQVHEKYHYLENKVTNSTSRVSKQMVQPPGSQSASRLKKTEIKESSPSPAAAAASQLSRSNTDDTLRVAIEGTLPVTYCELLEATNGFAVSNVIGKGGYGTVYKGELKGTGGIVAVKRLHSGNDTSQNGSRERLRQSLTELRTLARFRHDNILPIYAYSLEGSEPCLVYQFMSNGSLEDRLLCRKGSVPLTWIQRKEISIGAGRGLGFLHSFGKTPIIHGDIKTANILLDKHMEPKIGDFGLCRDGHVEAEAMEKHPLIASHIKGTLAYLAPEFITSKILTTKLDVYSFGIVLLEIASGQRAYSDSRETRGLVEYCQVNKELAAHRKIPVREIFIDRRAPPLVGDEEKSFLDALIEVGLAGANNDRKVRPTMSQIVEYLCKNSIPPVV | not soluble
